These results are taken from IntAct's records for PubMed 23727230.

The target in this experiment is prp8_yeast PRP8 (UniProt P33334).
prp8_yeast PRP8, sequence (P33334 whole entry): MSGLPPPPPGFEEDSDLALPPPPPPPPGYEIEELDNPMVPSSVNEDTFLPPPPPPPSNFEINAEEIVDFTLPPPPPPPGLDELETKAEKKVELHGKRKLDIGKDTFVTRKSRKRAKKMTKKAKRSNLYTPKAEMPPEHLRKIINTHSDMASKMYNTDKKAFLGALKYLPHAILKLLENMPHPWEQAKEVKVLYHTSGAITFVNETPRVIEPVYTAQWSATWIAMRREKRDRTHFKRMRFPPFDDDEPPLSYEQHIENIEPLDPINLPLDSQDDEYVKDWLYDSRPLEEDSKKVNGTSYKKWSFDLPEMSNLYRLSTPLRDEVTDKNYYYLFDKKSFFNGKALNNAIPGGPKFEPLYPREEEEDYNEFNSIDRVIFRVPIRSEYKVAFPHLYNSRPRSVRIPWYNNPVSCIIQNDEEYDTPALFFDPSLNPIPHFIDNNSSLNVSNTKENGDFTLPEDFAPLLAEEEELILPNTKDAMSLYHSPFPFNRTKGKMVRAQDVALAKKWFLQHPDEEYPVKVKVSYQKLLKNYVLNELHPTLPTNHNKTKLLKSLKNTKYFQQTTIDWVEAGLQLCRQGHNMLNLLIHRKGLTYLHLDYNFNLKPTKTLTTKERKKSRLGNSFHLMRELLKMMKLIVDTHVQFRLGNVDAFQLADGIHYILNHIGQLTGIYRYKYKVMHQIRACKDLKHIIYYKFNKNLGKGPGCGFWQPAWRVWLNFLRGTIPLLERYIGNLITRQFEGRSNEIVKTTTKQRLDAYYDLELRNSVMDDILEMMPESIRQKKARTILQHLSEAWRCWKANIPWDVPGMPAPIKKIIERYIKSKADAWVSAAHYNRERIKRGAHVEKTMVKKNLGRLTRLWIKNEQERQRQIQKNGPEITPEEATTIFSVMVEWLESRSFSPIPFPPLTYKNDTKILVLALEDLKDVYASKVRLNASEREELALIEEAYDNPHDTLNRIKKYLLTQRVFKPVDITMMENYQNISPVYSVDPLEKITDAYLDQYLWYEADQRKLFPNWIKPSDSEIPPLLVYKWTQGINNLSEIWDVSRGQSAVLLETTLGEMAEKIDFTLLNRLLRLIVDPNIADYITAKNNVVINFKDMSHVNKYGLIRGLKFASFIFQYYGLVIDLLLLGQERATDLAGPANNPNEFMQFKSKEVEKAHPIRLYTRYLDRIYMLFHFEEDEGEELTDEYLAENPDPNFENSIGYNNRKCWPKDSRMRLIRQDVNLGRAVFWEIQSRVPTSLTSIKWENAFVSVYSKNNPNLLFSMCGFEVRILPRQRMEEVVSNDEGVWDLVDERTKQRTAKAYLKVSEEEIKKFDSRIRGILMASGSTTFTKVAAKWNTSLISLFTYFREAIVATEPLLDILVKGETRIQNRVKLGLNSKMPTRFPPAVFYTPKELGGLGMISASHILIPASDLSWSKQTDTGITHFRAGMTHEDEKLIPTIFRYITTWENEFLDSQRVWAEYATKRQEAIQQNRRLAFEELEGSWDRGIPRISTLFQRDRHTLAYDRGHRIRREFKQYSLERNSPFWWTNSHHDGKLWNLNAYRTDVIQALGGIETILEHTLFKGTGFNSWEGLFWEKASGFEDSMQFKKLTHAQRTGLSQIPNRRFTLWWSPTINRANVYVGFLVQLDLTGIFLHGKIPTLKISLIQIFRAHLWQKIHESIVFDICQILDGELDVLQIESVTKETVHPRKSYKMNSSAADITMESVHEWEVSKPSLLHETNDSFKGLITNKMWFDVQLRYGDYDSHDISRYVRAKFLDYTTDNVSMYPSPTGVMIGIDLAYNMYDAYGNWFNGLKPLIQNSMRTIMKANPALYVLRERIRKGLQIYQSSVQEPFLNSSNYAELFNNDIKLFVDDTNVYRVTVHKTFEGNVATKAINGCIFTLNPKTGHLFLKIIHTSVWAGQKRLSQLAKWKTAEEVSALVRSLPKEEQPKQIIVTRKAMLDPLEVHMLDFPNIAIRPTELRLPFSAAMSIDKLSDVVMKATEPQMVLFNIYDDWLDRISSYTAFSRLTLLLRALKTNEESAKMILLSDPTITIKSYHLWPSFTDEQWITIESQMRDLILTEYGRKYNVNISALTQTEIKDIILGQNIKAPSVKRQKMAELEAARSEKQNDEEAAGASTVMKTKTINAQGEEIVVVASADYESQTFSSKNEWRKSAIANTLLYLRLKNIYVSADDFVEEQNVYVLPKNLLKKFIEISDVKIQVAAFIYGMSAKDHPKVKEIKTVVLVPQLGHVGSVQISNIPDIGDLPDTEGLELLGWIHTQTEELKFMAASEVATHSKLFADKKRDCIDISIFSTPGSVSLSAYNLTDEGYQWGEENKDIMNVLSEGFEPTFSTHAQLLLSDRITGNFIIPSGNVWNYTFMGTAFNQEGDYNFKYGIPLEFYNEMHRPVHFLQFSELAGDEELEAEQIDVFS

For “Pre-mRNA-splicing helicase BRR2 (Saccharomyces cerevisiae), P32639 D1247A;D1249A”, the “effect of a mutation on the interaction” value is reported as “decreasing interaction strength”.
